Reference: patent publication US20240018502A1
Residue numbers refer to the chain shown, from its start. Names may count otherwise. Blank lines part the entries; values can stand above or below the binder they belong to.

Target: plasma purified human complement protein C3 (human) (UniProt P01024)
Assay: cell-based or functional assay

Chain of plasma purified human complement protein C3 (human) (P01024 23-667, chain 1 of 2): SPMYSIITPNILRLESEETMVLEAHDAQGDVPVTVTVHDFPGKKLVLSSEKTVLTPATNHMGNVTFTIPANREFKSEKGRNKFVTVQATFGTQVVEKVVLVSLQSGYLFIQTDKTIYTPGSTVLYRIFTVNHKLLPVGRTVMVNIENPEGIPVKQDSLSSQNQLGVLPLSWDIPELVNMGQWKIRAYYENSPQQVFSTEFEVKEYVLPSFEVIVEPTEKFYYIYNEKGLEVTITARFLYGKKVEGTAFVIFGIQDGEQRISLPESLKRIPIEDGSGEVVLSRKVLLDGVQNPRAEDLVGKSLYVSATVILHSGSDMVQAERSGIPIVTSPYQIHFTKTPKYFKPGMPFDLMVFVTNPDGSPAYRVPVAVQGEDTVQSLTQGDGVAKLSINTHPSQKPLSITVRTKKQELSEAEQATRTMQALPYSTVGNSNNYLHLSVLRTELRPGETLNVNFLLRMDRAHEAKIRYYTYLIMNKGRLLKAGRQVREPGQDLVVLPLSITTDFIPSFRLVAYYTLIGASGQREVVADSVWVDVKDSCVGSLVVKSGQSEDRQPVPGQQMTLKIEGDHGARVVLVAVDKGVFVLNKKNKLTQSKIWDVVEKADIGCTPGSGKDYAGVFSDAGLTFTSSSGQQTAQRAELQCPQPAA
Chain of plasma purified human complement protein C3 (human) (P01024 672-1663, chain 2 of 2): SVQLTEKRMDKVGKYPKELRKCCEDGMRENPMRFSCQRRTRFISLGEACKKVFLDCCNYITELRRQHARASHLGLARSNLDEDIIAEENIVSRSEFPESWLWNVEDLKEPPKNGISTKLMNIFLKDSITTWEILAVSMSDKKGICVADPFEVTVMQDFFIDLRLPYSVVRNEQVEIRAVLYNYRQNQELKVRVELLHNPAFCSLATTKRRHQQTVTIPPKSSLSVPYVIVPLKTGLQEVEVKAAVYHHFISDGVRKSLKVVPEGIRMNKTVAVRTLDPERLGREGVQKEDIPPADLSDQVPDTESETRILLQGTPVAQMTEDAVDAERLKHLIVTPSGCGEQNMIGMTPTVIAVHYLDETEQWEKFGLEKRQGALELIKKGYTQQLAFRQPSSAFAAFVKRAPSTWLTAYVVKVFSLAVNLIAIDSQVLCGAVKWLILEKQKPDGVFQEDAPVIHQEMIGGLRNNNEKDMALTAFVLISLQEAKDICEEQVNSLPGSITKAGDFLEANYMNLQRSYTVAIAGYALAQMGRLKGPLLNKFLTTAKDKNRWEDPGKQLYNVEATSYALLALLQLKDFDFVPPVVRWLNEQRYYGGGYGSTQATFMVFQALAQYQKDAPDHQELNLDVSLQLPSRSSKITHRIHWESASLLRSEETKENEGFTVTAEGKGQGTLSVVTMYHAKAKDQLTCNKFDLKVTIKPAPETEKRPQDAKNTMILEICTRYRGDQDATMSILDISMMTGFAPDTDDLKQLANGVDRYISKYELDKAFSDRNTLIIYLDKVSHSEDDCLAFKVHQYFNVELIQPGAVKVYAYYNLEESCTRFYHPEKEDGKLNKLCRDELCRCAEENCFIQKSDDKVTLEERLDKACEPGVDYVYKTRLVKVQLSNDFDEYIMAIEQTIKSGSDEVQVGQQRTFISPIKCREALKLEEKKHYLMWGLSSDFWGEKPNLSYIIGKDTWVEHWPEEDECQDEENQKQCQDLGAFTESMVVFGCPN

EC50 hC3 cleavage: 25.7 nM
B1: MTSP-1 protease domain Q38H/I41S/D60bT/F60eS/Y60gW/F97D/T98P/F99L/C122S/G151H/Q175L/Q192E (enzyme)
chain: VVGGTDADEGEWPWQVSLHALGHGHSCGASLISPNWLVSAAHCYIDTRGSRWSDPTQWTAFLGLHDQSQRSAPGVQERRLKRIISHPFFNDDPLDYDIALLELEKPAEYSSMVRPISLPDASHVFPAGKAIWVTGWGHTQYGGTHALILQKGEIRVINQTTCENLLPQLITPRMMCVGFLSGGVDSCEGDSGGPLSSVEADGRIFQAGVVSWGDGCAQRNKPGVYTRLPLFRDWIKENTGV

EC50 hC3 cleavage: 227 nM
B2: MTSP-1 protease domain Q38Y/I41E/D60bS/F60eV/Y60gF/D96W/F97N/T98G/F99L/C122S/G151N/Q175L/Q192D (enzyme)
chain: B1 chain with H23Y, S26E, T47S, S50V, W52F, D91W, D92N, P93G, H145N, E188D

EC50 hC3 cleavage: 21.6 nM
B3: MTSP-1 protease domain Q38M/I41S/F60eH/Y60gW/D96Y/F97N/T98G/F99L/C122S/G151N/Q175L/Q192D (enzyme)
chain: B1 chain with H23M, T47D, S50H, D91Y, D92N, P93G, H145N, E188D

EC50 hC3 cleavage: 62.7 nM
B4: MTSP-1 protease domain Q38K/I41G/F60eG/Y60gW/D96P/F97N/T98G/F99L/C122S/G151N/Q175L/Q192D (enzyme)
chain: B1 chain with H23K, S26G, T47D, S50G, D91P, D92N, P93G, H145N, E188D

EC50 hC3 cleavage: 34.2 nM
B5: MTSP-1 protease domain Q38H/I41S/D60bT/F60eG/D96P/F97N/T98G/F99L/C122S/G151Q/Q175L/Q192D (enzyme)
chain: B1 chain with S50G, W52Y, D91P, D92N, P93G, H145Q, E188D

EC50 hC3 cleavage: 9.56 nM
B6: MTSP-1 protease domain Q38H/I41S/D60bT/F60eG/D96Y/F97N/T98G/F99L/C122S/G151N/Q175L/Q192D (enzyme)
chain: B1 chain with S50G, W52Y, D91Y, D92N, P93G, H145N, E188D

EC50 hC3 cleavage: 27.4 nM
B7: MTSP-1 protease domain Q38K/I41G/D60bT/F60eG/Y60gW/D96P/F97N/T98G/F99L/C122S/G151N/Q175L/Q192D (enzyme)
chain: B1 chain with H23K, S26G, S50G, D91P, D92N, P93G, H145N, E188D

EC50 hC3 cleavage: 27.4 nM
B8: MTSP-1 protease domain Q38V/I41G/F60eG/Y60gW/D96P/F97N/T98G/F99L/C122S/G151N/Q175L/Q192D (enzyme)
chain: B1 chain with H23V, S26G, T47D, S50G, D91P, D92N, P93G, H145N, E188D

EC50 hC3 cleavage: 22.3 nM
B9: MTSP-1 protease domain Q38E/I41S/D60bW/F60eG/D96M/F97N/T98G/F99L/C122S/G151N/Q175L/Q192D (enzyme)
chain: B1 chain with H23E, T47W, S50G, W52Y, D91M, D92N, P93G, H145N, E188D

EC50 hC3 cleavage: 45.9 nM
B10: MTSP-1 protease domain Q38E/I41S/D60bV/F60eK/Y60gW/D96P/F97N/T98G/F99L/C122S/G151N/Q175L/Q192D (enzyme)
chain: B1 chain with H23E, T47V, S50K, D91P, D92N, P93G, H145N, E188D

EC50 hC3 cleavage: 5.06 nM
B11: MTSP-1 protease domain Q38Y/I41A/D60bT/F60eG/Y60gW/D96V/F97N/T98G/F99L/C122S/G151H/Q175L/Q192D (enzyme)
chain: B1 chain with H23Y, S26A, S50G, D91V, D92N, P93G, E188D

EC50 hC3 cleavage: 4.47 nM
B12: MTSP-1 protease domain Q38H/I41S/D60bT/F60eG/Y60gW/D96V/F97N/T98G/F99L/C122S/G151N/Q175L/Q192D (enzyme)
chain: B1 chain with S50G, D91V, D92N, P93G, H145N, E188D

EC50 hC3 cleavage: 12.5 nM
B13: MTSP-1 protease domain Q38K/I41G/D60bT/F60eG/Y60gW/D96L/F97N/T98G/F99L/C122S/G151N/Q175L/Q192D (enzyme)
chain: B1 chain with H23K, S26G, S50G, D91L, D92N, P93G, H145N, E188D

EC50 of hC3 cleavage: 13.9 nM
B14: MTSP-1 protease domain with C122S (enzyme)
chain: VVGGTDADEGEWPWQVSLHALGQGHICGASLISPNWLVSAAHCYIDDRGFRYSDPTQWTAFLGLHDQSQRSAPGVQERRLKRIISHPFFNDFTFDYDIALLELEKPAEYSSMVRPISLPDASHVFPAGKAIWVTGWGHTQYGGTGALILQKGEIRVINQTTCENLLPQQITPRMMCVGFLSGGVDSCQGDSGGPLSSVEADGRIFQAGVVSWGDGCAQRNKPGVYTRLPLFRDWIKENTGV

EC50 hC3 cleavage: 6.33 nM
B15: MTSP-1 protease domain I41S/D60bT/F60eS/Y60gW/ins97aV/F97D/T98P/F99L/C122S/G151H/Q175L/Q192E (enzyme)
chain: VVGGTDADEGEWPWQVSLHALGQGHSCGASLISPNWLVSAAHCYIDTRGSRWSDPTQWTAFLGLHDQSQRSAPGVQERRLKRIISHPFFNDDVPLDYDIALLELEKPAEYSSMVRPISLPDASHVFPAGKAIWVTGWGHTQYGGTHALILQKGEIRVINQTTCENLLPQLITPRMMCVGFLSGGVDSCEGDSGGPLSSVEADGRIFQAGVVSWGDGCAQRNKPGVYTRLPLFRDWIKENTGV

EC50 hC3 cleavage: 3.83 nM
B16: MTSP-1 protease domain Q38H/I41S/F60eS/Y60gW/ins97aV/F97D/T98P/F99L/C122S/G151H/Q175L/Q192E (enzyme)
chain: B15 chain with Q23H, T47D

EC50 hC3 cleavage: 11.5 nM
B17: MTSP-1 protease domain Q38H/I41S/D60bT/F60eS/Y60gW/ins97aV/F97D/T98P/C122S/G151H/Q175L/Q192E (enzyme)
chain: B15 chain with Q23H, L95F

EC50 hC3 cleavage: 4.07 nM
B18: MTSP-1 protease domain Q38H/I41S/D60bT/F60eS/Y60gW/F97D/ins97aA/T98P/F99L/C122S/G151H/Q175L/Q192E (enzyme)
chain: B15 chain with Q23H, V93A

EC50 hC3 cleavage: 1.31 nM
B19: MTSP-1 protease domain Q38H/I41S/D60bT/F60eS/Y60gW/ins97aV/F97D/T98P/F99L/C122S/G151H/Q175L (enzyme)
chain: B15 chain with Q23H, E189Q

EC50 hC3 cleavage: 7.82 nM
B20: MTSP-1 protease domain Q38H/I41S/D60bT/F60eS/Y60gW/ins97aV/F97D/F99L/C122S/G151H/Q175L/Q192E (enzyme)
chain: B15 chain with Q23H, P94T

EC50 hC3 cleavage: 11.9 nM
B21: MTSP-1 protease domain Q38H/I41S/D60bT/F60eS/Y60gW/F97D/ins97aV/T98P/F99L/C122S/G151H/Q192E (enzyme)
chain: B15 chain with Q23H, L170Q

EC50 hC3 cleavage: 3.19 nM
B22: MTSP-1 protease domain Q38H/I41S/D60bT/F60eS/Y60gW/ins97aV/T98P/F99L/C122S/G151H/Q175L/Q192E (enzyme)
chain: B15 chain with Q23H, D92F

EC50 of hC3 cleavage: 14.4 nM
B23: MTSP-1 Q38H/I41A/D60bT/F60eK/Y60gW/F97T/ins97aE/T98G/F99L/C122S/G151N/Q175L/Q192D (enzyme)
chain: B15 chain with Q23H, S26A, S50K, D92T, V93E, P94G, H146N, E189D

EC50 hC3 cleavage: 66.7 nM
B24: MTSP-1 protease domain Q38H/D60bT/F60eS/Y60gW/ins97aV/F97D/T98P/F99L/C122S/G151H/Q175L/Q192E (enzyme)
chain: B15 chain with Q23H, S26I

EC50 hC3 cleavage: 10.4 nM
B25: MTSP-1 protease domain Q38H/I41S/D60bT/Y60gW/ins97aV/F97D/T98P/F99L/C122S/G151H/Q175L/Q192E (enzyme)
chain: B15 chain with Q23H, S50F

EC50 hC3 cleavage: 13.1 nM
B26: MTSP-1 protease domain Q38H/I41A/D60bV/F60eR/Y60gW/D96F/F97D/ins97aE/T98G/F99M/C122S/G151N/Q175L/Q192R (enzyme)
chain: B15 chain with Q23H, S26A, T47V, S50R, D91F, V93E, P94G, L95M, H146N, E189R

EC50 hC3 cleavage: 4.86 nM
B27: MTSP-1 protease domain Q38H/I41S/D60bT/F60eS/Y60gW/ins97aV/F97D/T98P/F99L/C122S/Q175L/Q192E (enzyme)
chain: B15 chain with Q23H, H146G
